Assay results from patent publication US20140219956A1.

Target: TROP-2 (EGP-1, epithelial glycoprotein-1) (human) (UniProt P09758)
Experiment: cell-based or functional assay

Sequence of TROP-2 (EGP-1, epithelial glycoprotein-1) (human) (P09758 27-323): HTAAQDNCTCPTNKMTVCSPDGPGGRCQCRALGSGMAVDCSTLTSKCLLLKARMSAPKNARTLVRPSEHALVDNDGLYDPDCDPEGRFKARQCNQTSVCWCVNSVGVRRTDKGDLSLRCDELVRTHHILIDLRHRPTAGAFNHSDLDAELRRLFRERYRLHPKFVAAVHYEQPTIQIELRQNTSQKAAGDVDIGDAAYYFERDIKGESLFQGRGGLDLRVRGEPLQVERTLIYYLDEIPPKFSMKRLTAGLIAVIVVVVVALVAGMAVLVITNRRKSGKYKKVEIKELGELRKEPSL

B1: hRS7 (humanized anti-TROP-2 / anti-EGP-1 antibody), unconjugated IgG (antibody, INN chains, looked up, V domains shown)
VH: QVQLQQSGSELKKPGASVKVSCKASGYTFTNYGMNWVKQAPGQGLKWMGWINTYTGEPTYTDDFKGRFAFSLDTSVSTAYLQISSLKADDTAVYFCARGGFGSSYWYFDVWGQGSLVTVSS
VL: DIQLTQSPSSLSASVGDRVSITCKASQDVSIAVAWYQQKPGKAPKLLIYSASYRYTGVPDRFSGSGSGTDFTLTISSLQPEDFAVYYCQQHYITPLTFGAGTKVEIK
ADCC, specific lysis of BxPC-3 target cells (PBMC effectors, effector to target ratio 100:1, 33.3 nM): 8.5%
